Experimental findings from PMC10746525 are described below.

B1: MBP-TRAK1_(342-431) [human] / MIRO1_(177-591) [human] (parent)
chain 1: EEKEMKPACIKALTRIFKISDQDNDGTLNDAELNFFQRICFNTPLAPQALEDVKNVVRKHISDGVADSGLTLKGFLFLHTLFIQRGRHETTWTVLRRFGYDDDLDLTPEYLFPLLKIPPDCTTELNHHAYLFLQSTFDKHDLDRDCALSPDELKDLFKVFPYIPWGPDVNNTVCTNERGWITYQGFLSQWTLTTYLDVQRCLEYLGYLGYSILTEQESQASAVTVTRDKKIDLQKKQTQRNVFRCNVIGVKNCGKSGVLQALLGRNLMRQKKIREDHKSYYAINTVYVYGQEKYLLLHDISESEFLTEAEIICDVVCLVYDVSNPKSFEYCARIFKQHFMDSRIPCLIVAAKSDLHEVKQEYSISPTDFCRKHKMPPPQAFTCNTADAPSKDIFVKLTTMAMYPHVTQADLKSST
chain 2: EAQEELKNLRNKTMPNTTSRRYHSLGLFPMDSLAAEIEGTMRKELQLEEAESPDITHQKRVFETVRNINQVVKQRSLTPSPMNIPGSNQS
B2: MBP-TRAK1_(342-431) [human] / MIRO1_(177-591) [human] (parent)
chain 1: B1 chain 2
chain 2: B1 chain 1

Variants of B1 are the subject of assay [1]. Briefly: ITC. The conditions noted are these: with MIRO1_(177-591) [human]; 370 µM MIRO1(177-591) in syringe, 35 µM MBP-TRAK1(342-431) 400KR401 to AA in cell; ITC buffer with 5 mM EGTA.
In assay [2] the parent is B2. Briefly: ITC. The conditions noted are these: with MIRO1_(177-591) [human]; 370 µM MBP-TRAK1(342-431) 400KR401 to AA in syringe, 30 µM MIRO1(177-591) in cell; ITC buffer with 5 mM EGTA.

One may read the Kd as the free concentration of one partner at which half of the binding sites on the other are occupied at equilibrium, for simple one-to-one binding. As to chain 2 K59A R60A, in assay [1], the Kd turned out to be 7.52 µM and the screen value was found to be 0.74.
chain 1 K59A R60A: in assay [2], the Kd came out at 9.62 µM and the screen value was determined as 0.91.
